# Assay results reported in US20250197490A1 (HBM ALPHA THERAPEUTICS, published 2025).
# Where “and” joins values, the source holds several entries; their conditions need not be identical. Equal values may be shown once.
# Biological target: T1, corticotropin-releasing hormone (CRH) peptide (human and mouse, UniProt P01143 145-185 (rat entry), not fully specified)
# T1 peptide: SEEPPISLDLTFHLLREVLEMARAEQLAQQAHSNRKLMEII
# Test: cell-based or functional assay
row,Binder,hCRHR1-Luc 0.5 nM CRH IC50
1,"PR302341 (antibody, human IgG1, kappa, V domains shown) VH: EVQLQQSGPELVKPGASVKMSCKASGYTFTDYFMKWVKQSHGESLEWIGVINPNNGDIFYNQKFKGKATLTVDKSSSTAFMQLNSLTSEDSAVYSCARGTDRALFAYWGQGTLVAVSA VL: DVLMTQTPLSLPVSLGDQASISCRSGQSIVHSDGNTYLEWYLQRPGQSPRLLIYKVSNRFSGVPDRFSGSGSGTDFTLKISRVGAEDLGIYYCFQGSHIPWTFGGGTKLEVKR",0.139 nM and 0.231 nM
2,"PR302341-1 (antibody, human IgG1, kappa, V domains shown) VH: EVQLQQSGPELVKPGASVKMSCKASGYTFTDYFMKWVKQSHGESLEWIGVINPNNGDIFYNQKFKGKATLTVDKSSSTAFMQLNSLTSEDSAVYSCARGTDRALFAYWGQGTLVAVSA VL: DVVMTQSPLSLPVTLGQPASISCRSGQSIVHSDGNTYLEWFQQRPGQSPRRLIYKVSNRFSGVPDRFSGSGSGTDFTLKISRVEAEDVGVYYCFQGSHIPWTFGGGTKVEIKR",0.397 nM
3,"PR302341-5 (antibody, human IgG1, kappa, V domains shown) VH: EVQLQQSGPELVKPGASVKMSCKASGYTFTDYFMKWVKQSHGESLEWIGVINPNNGDIFYNQKFKGKATLTVDKSSSTAFMQLNSLTSEDSAVYSCARGTDRALFAYWGQGTLVAVSA VL: DIVMTQTPLSLSVTPGQPASISCRSGQSIVHSDGNTYLEWYLQKPGQSPQLLIYKVSNRFSGVPDRFSGSGSGTDFTLKISRVEAEDVGVYYCFQGSHIPWTFGGGTKVEIKR",0.73 nM
4,"PR302341-13 (antibody, human IgG1, kappa, V domains shown) VH: QVQLVQSGAEVKKPGASVKVSCKASGYTFTDYFMKWVRQAPGQGLEWMGVINPNNGDIFYNQKFKGRVTMTRDTSTSTVYMELSSLRSEDTAVYYCARGTDRALFAYWGQGTLVTVSS VL: DVLMTQTPLSLPVSLGDQASISCRSGQSIVHSDGNTYLEWYLQRPGQSPRLLIYKVSNRFSGVPDRFSGSGSGTDFTLKISRVGAEDLGIYYCFQGSHIPWTFGGGTKLEVKR",0.124 nM
5,"PR302341-4 (antibody, human IgG1, kappa, V domains shown) VH: EVQLQQSGPELVKPGASVKMSCKASGYTFTDYFMKWVKQSHGESLEWIGVINPNNGDIFYNQKFKGKATLTVDKSSSTAFMQLNSLTSEDSAVYSCARGTDRALFAYWGQGTLVAVSA VL: DVVMTQTPLSSPVTLGQPASISCRSGQSIVHSDGNTYLEWYQQRPGQPPRLLIYKVSNRFSGVPDRFSGSGAGTDFTLKISRVEAEDLGVYYCFQGSHIPWTFGGGTKVEIKR",0.107 nM
6,"PR302341-6 (antibody, human IgG1, kappa, V domains shown) VH: EVQLQQSGPELVKPGASVKMSCKASGYTFTDYFMKWVKQSHGESLEWIGVINPNNGDIFYNQKFKGKATLTVDKSSSTAFMQLNSLTSEDSAVYSCARGTDRALFAYWGQGTLVAVSA VL: DVVMTQTPLSLSVTPGQPASISCRSGQSIVHSDGNTYLEWYLQKPGQSPQLLIYKVSNRFSGVPDRFSGSGSGTDFTLKISRVEAEDLGVYYCFQGSHIPWTFGGGTKVEIKR",0.363 nM
7,"PR302341-3 (antibody, human IgG1, kappa, V domains shown) VH: EVQLQQSGPELVKPGASVKMSCKASGYTFTDYFMKWVKQSHGESLEWIGVINPNNGDIFYNQKFKGKATLTVDKSSSTAFMQLNSLTSEDSAVYSCARGTDRALFAYWGQGTLVAVSA VL: DIVMTQTPLSSPVTLGQPASISCRSGQSIVHSDGNTYLEWLQQRPGQPPRLLIYKVSNRFSGVPDRFSGSGAGTDFTLKISRVEAEDVGVYYCFQGSHIPWTFGGGTKVEIKR",0.128 nM
8,"PR302341-2 (antibody, human IgG1, kappa, V domains shown) VH: EVQLQQSGPELVKPGASVKMSCKASGYTFTDYFMKWVKQSHGESLEWIGVINPNNGDIFYNQKFKGKATLTVDKSSSTAFMQLNSLTSEDSAVYSCARGTDRALFAYWGQGTLVAVSA VL: DVVMTQSPLSLPVTLGQPASISCRSGQSIVHSDGNTYLEWYQQRPGQSPRLLIYKVSNRFSGVPDRFSGSGSGTDFTLKISRVEAEDLGVYYCFQGSHIPWTFGGGTKVEIKR",0.168 nM
